± gives the standard deviation of the averaged measurements.
Assay: total protein half-life in vivo (active degradation + dilution); higher = more stable protein
[1] = E. coli NCM3722 delta-clpP delta-lon delta-hslV, growth: N-lim chemostat, doubling time 6 h
[2] = E. coli NCM3722 delta-clpP, growth: N-lim chemostat, doubling time 6 h
[3] = E. coli NCM3722 delta-hslV, growth: N-lim chemostat, doubling time 6 h
[4] = E. coli NCM3722 delta-lon, growth: N-lim chemostat, doubling time 6 h
[5] = E. coli NCM3722 delta-smpB, growth: N-lim chemostat, doubling time 6 h
[6] = wild type E. coli NCM3722, growth: C-lim chemostat, doubling time 3 h
[7] = wild type E. coli NCM3722, growth: C-lim chemostat, doubling time 6 h
[8] = wild type E. coli NCM3722, growth: C-lim chemostat, doubling time 12 h
[9] = wild type E. coli NCM3722, growth: N-lim chemostat, doubling time 6 h
[10] = wild type E. coli NCM3722, growth: P-lim chemostat, doubling time 6 h
[11] = wild type E. coli NCM3722, growth: P-lim chemostat, doubling time 12 h
[12] = wild type E. coli NCM3722, growth: N-lim chemostat, doubling time 12 h

Sequence | total protein half-life in vivo [1] [h] | total protein half-life in vivo [2] [h] | total protein half-life in vivo [3] [h] | total protein half-life in vivo [4] [h] | total protein half-life in vivo [5] [h] | total protein half-life in vivo [6] [h] | total protein half-life in vivo [7] [h] | total protein half-life in vivo [8] [h] | total protein half-life in vivo [9] [h] | total protein half-life in vivo [10] [h] | total protein half-life in vivo [11] [h] | total protein half-life in vivo [12] [h]
MLYLTKISNAGSEFTENEQKIADFLQANVSELQSVSSRQMAKQLGISQSSIVKFAQKLGAQGFTELRMALIGEYSASREKTNATALHLHSSITSDDSLEVIARKLNREKELALEQTCALLDYARLQKIIEVISKAPFIQITGLGGSALVGRDLSFKLMKIGYRVACEADTHVQATVSQALKKGDVQIAISYSGSKKEIVLCAEAARKQGATVIAITSLTDSPLRRLAHFTLDTVSGETEWRSSSMSTRTAQNSVTDLLFVGLVQLNDVESLKMIQRSSELTQRLK | 6.32 ± 0.32 | 5.62 ± 0.76 | 5.52 ± 0.44 | 5.93 ± 2.8 | 5.37 ± 0.52 | 3.04 ± 0.11 | 5.97 ± 0.46 | 12.7 ± 3 | 5.36 ± 0.48 | 5.74 | 12 ± 2 | –
MMDSLRTAANSLVLKIIFGIIIVSFILTGVSGYLIGGGNNYAAKVNDQEISRGQFENAFNSERNRMQQQLGDQYSELAANEGYMKTLRQQVLNRLIDEALLDQYARELKLGISDEQVKQAIFATPAFQVDGKFDNSRYNGILNQMGMTADQYAQALRNQLTTQQLINGVAGTDFMLKGETDELAALVAQQRVVREATIDVNALAAKQPVTEQEIASYYEQNKNNFMTPEQFRVSYIKLDAATMQQPVSDADIQSYYDQHQDQFTQPQRTRYSIIQTKTEDEAKAVLDELNKGGDFAALAKEKSADIISARNGGDMGWLEDATIPDELKNAGLKEKGQLSGVIKSSVGFLIVRLDDIQPAKVKSLDEVRDDIAAKVKHEKALDAYYALQQKVSDAASNDTESLAGAEQAAGVKATQTGWFSKDNLPEELNFKPVADAIFNGGLVGENGAPGINSDIITVDGDRAFVLRISEHKPEAVKPLADVQEQVKALVQHNKAEQQAKVDAEKLLVDLKAGKGAEAMQAAGLKFGEPKTLSRSGRDPISQAAFALPLPAKDKPSYGMATDMQGNVVLLALDEVKQGSMPEDQKKAMVQGITQNNAQIVFEALMSNLRKEAKIKIGDALEQQ [P0ADY1] | 6.92 ± 0.99 | 6.533 ± 0.039 | 5.89 ± 0.078 | 6.39 ± 0.26 | 6.15 ± 0.67 | 3.05 ± 0.23 | 5.96 ± 0.096 | 12.7 ± 1.2 | 6.17 ± 0.25 | 5.92 ± 0.088 | 12.4 ± 0.2 | 12.8 ± 1.7
MMEGQQHGEQLKRGLKNRHIQLIALGGAIGTGLFLGSASVIQSAGPGIILGYAIAGFIAFLIMRQLGEMVVEEPVAGSFSHFAYKYWGSFAGFASGWNYWVLYVLVAMAELTAVGKYIQFWYPEIPTWVSAAVFFVVINAINLTNVKVFGEMEFWFAIIKVIAVVAMIIFGGWLLFSGNGGPQATVSNLWDQGGFLPHGFTGLVMMMAIIMFSFGGLELVGITAAEADNPEQSIPKATNQVIYRILIFYIGSLAVLLSLMPWTRVTADTSPFVLIFHELGDTFVANALNIVVLTAALSVYNSCVYCNSRMLFGLAQQGNAPKALASVDKRGVPVNTILVSALVTALCVLINYLAPESAFGLLMALVVSALVINWAMISLAHMKFRRAKQEQGVVTRFPALLYPLGNWICLLFMAAVLVIMLMTPGMAISVYLIPVWLIVLGIGYLFKEKTAKAVKAH | 5.89 ± 0.35 | 4.94 ± 0.16 | 5.65 | 4.684 ± 0.041 | 5.14 ± 0.68 | 2.98 | 5.81 ± 0.44 | 11.914 ± 0.0083 | 5.68 ± 1.1 | 5.39 ± 0.41 | 10.1 ± 1.7 | 9.07 ± 0.36
MMEILRGSPALSAFRINKLLARFQAARLPVHNIYAEYVHFADLNAPLNDDEHAQLERLLKYGPALASHAPQGKLLLVTPRPGTISPWSSKATDIAHNCGLQQVNRLERGVAYYIEAGTLTNEQWQQVTAELHDRMMETVFFALDDAEQLFAHHQPTPVTSVDLLGQGRQALIDANLRLGLALAEDEIDYLQDAFTKLGRNPNDIELYMFAQANSEHCRHKIFNADWVIDGEQQPKSLFKMIKNTFETTPDHVLSAYKDNAAVMEGSEVGRYFADHETGRYDFHQEPAHILMKVETHNHPTAISPWPGAATGSGGEIRDEGATGRGAKPKAGLVGFSVSNLRIPGFEQPWEEDFGKPERIVTALDIMTEGPLGGAAFNNEFGRPALNGYFRTYEEKVNSHNGEELRGYHKPIMLAGGIGNIRADHVQKGEINVGAKLVVLGGPAMNIGLGGGAASSMASGQSDADLDFASVQRDNPEMERRCQEVIDRCWQLGDANPILFIHDVGAGGLSNAMPELVSDGGRGGKFELREILSDEPGMSPLEIWCNESQERYVLAVAADQLPLFDELCKRERAPYAVIGEATEELHLSLHDRHFDNQPIDLPLDVLLGKTPKMTRDVQTLKAKGDALAREGITIADAVKRVLHLPTVAEKTFLVTIGDRSVTGMVARDQMVGPWQVPVANCAVTTASLDSYYGEAMAIGERAPVALLDFAASARLAVGEALTNIAATQIGDIKRIKLSANWMAAAGHPGEDAGLYEAVKAVGEELCPALGLTIPVGKDSMSMKTRWQEGNEEREMTSPLSLVISAFARVEDVRHTITPQLSTEDNALLLIDLGKGNNALGATALAQVYRQLGDKPADVRDVAQLKGFYDAIQALVAQRKLLAYHDRSDGGLLVTLAEMAFAGHCGIDADIATLGDDRLAALFNEELGAVIQVRAADREAVESVLAQHGLADCVHYVGQAVSGDRFVITANGQTVFSESRTTLRVWWAETTWQMQRLRDNPECADQEHQAKSNDADPGLNVKLSFDINEDVAAPYIATGARPKVAVLREQGVNSHVEMAAAFHRAGFDAIDVHMSDLLTGRTGLEDFHALVACGGFSYGDVLGAGEGWAKSILFNDRVRDEFATFFHRPQTLALGVCNGCQMMSNLRELIPGSELWPRFVRNTSDRFEARFSLVEVTQSPSLLLQGMVGSQMPIAVSHGEGRVEVRDAAHLAALESKGLVALRYVDNFGKVTETYPANPNGSPNGITAVTTESGRVTIMMPHPERVFRTVSNSWHPENWGEDGPWMRIFRNARKQLG | 5.77 ± 0.51 | 4.8 ± 0.37 | 4.73 ± 0.32 | 5.07 ± 0.55 | 4.63 ± 0.36 | 3.03 ± 0.051 | 5.98 ± 0.39 | 10.4 ± 0.62 | 4.72 ± 0.081 | 6.31 ± 0.075 | 11.5 ± 0.43 | 8.05 ± 0.21
MMHRLNLNGYEPDRHHEAAVAFCIHAGTDELTSPVHQHRKGQLILALHGAITCTVENALWMVPPQYAVWIPGGVEHSNQVTANAELCFLFIEPSAVTMPTTCCTLKISPLCRELILTLANRTTTQRAEPMTRRLIQVLFDELPQQPQQQLHLPVSSHPKIRTMVEMMAKGPVEWGALGQWAGFFAMSERNLARLIVKETGLSFRQWRQQLQLIMALQGLVKGDTVQKVAHTLGYDSTTAFITMFKKGLGQTPGRYIARLTTVSPQSAKPDPRQ | 4.97 ± 0.56 | – | – | – | – | – | – | – | – | – | – | –
